Assay results: patent US20060234906A1, “Structure of a complex of retinoblastoma protein bound to e2f, and uses thereof” (priority 2002, published 2006)

Assays:
RbAB = biological target: T1, RbAB (Homo sapiens, UniProt P06400); experiment: Isothermal titration calorimetry of E2F constructs binding to RbAB; settings: ITC, binding to pRbAB
T1 construct: residues 372 to 589 of the A domain and 636 to 787 of the B domain; GST (with Prescission protease site) (N, cleaved yes); engineered thrombin site (LVPRGS) at the A-domain end of the A-B linker (C, cleaved yes); engineered thrombin site (LVPRGS) at the B-domain end of the A-B linker (N, cleaved yes); made in house; host or cells: E. coli
T1 sequence (P06400 372-589): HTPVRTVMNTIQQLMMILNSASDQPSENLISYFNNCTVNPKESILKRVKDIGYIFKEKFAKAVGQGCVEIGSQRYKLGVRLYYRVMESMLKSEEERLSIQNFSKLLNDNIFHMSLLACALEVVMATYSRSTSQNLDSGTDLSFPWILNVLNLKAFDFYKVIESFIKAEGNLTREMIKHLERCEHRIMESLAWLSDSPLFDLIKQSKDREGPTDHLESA
T1 sequence (P06400 636-787): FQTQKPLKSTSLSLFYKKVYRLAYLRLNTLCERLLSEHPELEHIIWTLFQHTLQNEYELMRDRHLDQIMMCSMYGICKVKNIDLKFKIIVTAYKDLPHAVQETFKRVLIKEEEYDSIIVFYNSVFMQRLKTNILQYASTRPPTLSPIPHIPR
Description: The panel represents the experiment where E2F(243-437) is titrated into RbAB.
(B) Summary of dissociation constants obtained by ITC measurements. The quoted errors are those produced by fitting the data to a two-state model. For the interaction of E2F(243-437) to RbAB and RbABC the affinities are too high to measure reliably and we have therefore quoted the upper limits of the dissociation constants.
Binding of the various E2F constructs to RbAB and RbABC was measured by isothermal titration calorimetry using a MicroCal Omega VP-ITC machine (MicroCal Inc., Northampton, USA). The E2F constructs at a concentration between 100-150 μM were titrated into 12-15 μM Rb at a temperature of 22° C. Proteins were dialysed against 50 mM Tris pH 7.6, 100 mM NaCl and 1 mM TCEP. After subtraction of the dilution heats, calorimetric data was analysed using the evaluation software MicroCal Origin v5.0 (MicroCal Software Inc.). For all of the titrations, the stoichiometry of ligand binding to Rb was very close to 1.0. For E2F(243-437) binding to Rb, the binding affinity and the heat change associated with binding were such that we could only establish that binding was tighter than 10 nM.

RbABC = biological target: T2, RbABC (Homo sapiens, UniProt P06400); experiment: RbABC
T2 construct: His6-RbABC (RESIDUES 380-929); made in house; host or cells: E. coli
T2 sequence (P06400 whole entry, looked up): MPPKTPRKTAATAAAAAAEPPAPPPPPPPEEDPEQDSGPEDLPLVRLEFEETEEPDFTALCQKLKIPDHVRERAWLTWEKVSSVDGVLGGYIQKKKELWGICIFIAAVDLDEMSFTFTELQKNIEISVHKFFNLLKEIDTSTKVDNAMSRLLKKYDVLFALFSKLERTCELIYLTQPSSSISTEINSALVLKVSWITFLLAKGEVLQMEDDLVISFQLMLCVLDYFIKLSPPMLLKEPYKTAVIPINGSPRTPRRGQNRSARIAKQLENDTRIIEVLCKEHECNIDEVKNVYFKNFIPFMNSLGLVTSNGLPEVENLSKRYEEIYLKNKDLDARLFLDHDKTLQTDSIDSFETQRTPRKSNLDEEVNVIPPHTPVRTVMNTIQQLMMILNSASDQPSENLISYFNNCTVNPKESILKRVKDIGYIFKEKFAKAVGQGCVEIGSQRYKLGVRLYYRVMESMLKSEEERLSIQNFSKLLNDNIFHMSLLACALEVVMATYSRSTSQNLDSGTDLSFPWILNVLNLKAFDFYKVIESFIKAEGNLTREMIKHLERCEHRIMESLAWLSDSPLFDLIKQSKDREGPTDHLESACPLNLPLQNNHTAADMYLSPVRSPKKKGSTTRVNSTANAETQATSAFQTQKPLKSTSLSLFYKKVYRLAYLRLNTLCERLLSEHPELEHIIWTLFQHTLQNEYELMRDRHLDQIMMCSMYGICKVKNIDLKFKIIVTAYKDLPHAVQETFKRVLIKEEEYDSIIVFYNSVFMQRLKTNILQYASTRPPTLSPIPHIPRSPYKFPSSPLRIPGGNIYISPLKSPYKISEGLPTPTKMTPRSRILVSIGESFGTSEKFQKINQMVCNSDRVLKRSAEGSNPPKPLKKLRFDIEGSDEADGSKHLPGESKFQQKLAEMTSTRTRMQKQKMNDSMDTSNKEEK
Source text: Table printed on a drawing sheet, FIG. 2B
The patent's description of the figure: FIG. 2.
First copying reader's note: Binding constants of E2F fragments to the Rb constructs RbAB and RbABC; the error is printed in the same cell as the value.
Where the first naming reader finds the target: head: RbABC

B1: E2F(243-437): Recombinant human E2F1(243-437) expressed in E. coli (protein, UniProt Q01094 243-437, looked up, fragment)
chain: LAYVTCQDLRSIADPAEQMVMVIKAPPETQLQAVDSSENFQISLKSKQGPIDVFLCPEETVGGISPGKTPSQEVTSEEENRATDSATIVSPPPSSPPSSLTTDPSQSLLSLEQEPLLSRMGSLRAPVDEDRLSPLVAADSLLEHVREDFSGLLPEEFISLSPPHEALDYHFGLEEGEGIRDLFDCDFGDLTPLDF
binds stronger than either of the two shorter E2F fragments (RbAB): at least 16 fold
Kd (RbABC): < 0.01 µM
